B1: Azoarcus group I ribozyme (parent)
chain: GUGCCUUGCGCCGGGAAACCACGCAAGGGAUGGUGUCAAAUUCGGCGAAACCUAAGCGCCCGCCCGGGCGUAUGGCAACGCCGAGCCAAGCUUCGGCGCCUGCGCCGAUGAAGGUGUAGAGACUAGACGGCACCCACCUAAGGCAAACGCUAUGGUGAAGGCAUAGUCCAGGGAGUGGCGAAAGUCACACAAACCGG

15 variants from the RNAGym collection of RNA variant scans (doi:10.1093/molbev/msab373) can be followed below.

Variants of B1 are the subject of this data set. Put plainly: reverse-splicing fitness (ratio to wild type); higher = more active; in vitro selection; Mg2+ level not given. The method, boiled down:
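An in vitro group I ribozyme library with randomized positions was T7-transcribed and gel-purified. In triplicate, 10 pmol RNA in EPPS pH 7.5 was reacted with 50 pmoles of a 30-nt RNA substrate for 1 h at 37 °C across several added MgCl2 levels (1–48 mM), then stopped with EDTA. Products were reverse transcribed from a substrate-complementary primer, PCR-amplified and sequenced (HiSeq 4000). Fitness is a variant's read proportion after selection over that before, normalised to wild type.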
As for GUGCCUUGCGCCGGGAAACCACGCAAGGGAUGGUGUCAAAUUCGGCGAAACCUAAGCGCCCGCCCGGGCGUAUGGCAACGCUGAGCCAAGCUUCGGCGCCUGCGCCGAUGUAGGUGUAGUGACUAGACGGCACCCACCUAAGGCUAACGAUAUGGUGAAGGCAUAGUCUAGGGAGCGGCGAAAGUCACACAAACCGG [C82U A111U A120U A145U C150A C169U U176C], the reverse-splicing fitness is 0.00234.

For GUGCCUUGCGCCGGGAAACCACGCAAGGGAUGGUGUCAAAUUCGGCGAAACCUAAGCGCCCGCCCGGGCGUAUGGCAACGCUGAGCCAAGCUUCGGCGCCUGCGCCGAUGUAGGUGUAGUGACUAGACGGCACCCACCUAAGGCUAACGAUAUGGUGAAGGCAUAGUCUAGGGAGAGGCGAAAGUCACACAAACCGG [C82U A111U A120U A145U C150A C169U U176A], the reverse-splicing fitness came out at 0.00233.

Regarding GUGCCUUGCGCCGGGAAACCACGCAAGGGAUGGUGUCAAAUUCGGCGAAACCUAAGCGCCCGCCCGGGCGUAUGGCAACGCUGAGCCAAGCUUCGGCGCCUGCGCCGAUGUAGGUGUAGUGACUAGACGGCACCCACCUAAGGCUAACGGUAUGGUGAAGGCAUAGUCCAGGGAGUGGCGAAAGUCACACAAACCGG [C82U A111U A120U A145U C150G], the reverse-splicing fitness amounted to 0.00727.

As for GUGCCUUGCGCCGGGAAACCACGCAAGGGAUGGUGUCAAAUUCGGCGAAACCUAAGCGCCCGCCCGGGCGUAUGGCAACGCUGAGCCAAGCUUCGGCGCCUGCGCCGAUGUAGGUGUAGUGACUAGACGGCACCCACCUAAGGCUAACGUUAUGGUGAAGGCAUAGUCCAGGGAGUGGCGAAAGUCACACAAACCGG [C82U A111U A120U A145U C150U], the reverse-splicing fitness was determined as 0.0175.

On to GUGCCUUGCGCCGGGAAACCACGCAAGGGAUGGUGUCAAAUUCGGCGAAACCUAAGCGCCCGCCCGGGCGUAUGGCAACGCUGAGCCAAGCUUCGGCGCCUGCGCCGAUGUAGGUGUAGUGACUAGACGGCACCCACCUAAGGCUAACGAUAUGGUGAAGGCAUAGUCUAGGGAGUGGCGAAAGUCACACAAACCGG [C82U A111U A120U A145U C150A C169U], for which the reverse-splicing fitness was found to be 0.00279.

GUGCCUUGCGCCGGGAAACCACGCAAGGGAUGGUGUCAAAUUCGGCGAAACCUAAGCGCCCGCCCGGGCGUAUGGCAACGCUGAGCCAAGCUUCGGCGCCUGCGCCGAUGUAGGUGUAGUGACUAGACGGCACCCACCUAAGGCUAACGAUAUGGUGAAGGCAUAGUCGAGGGAGUGGCGAAAGUCACACAAACCGG [C82U A111U A120U A145U C150A C169G]: the reverse-splicing fitness was 0.00254.

Turning to GUGCCUUGCGCCGGGAAACCACGCAAGGGAUGGUGUCAAAUUCGGCGAAACCUAAGCGCCCGCCCGGGCGUAUGGCAACGCUGAGCCAAGCUUCGGCGCCUGCGCCGAUGUAGGUGUAGUGACUAGACGGCACCCACCUAAGGCUAACGAUAUGGUGAAGGCAUAGUCGAGGGAGGGGCGAAAGUCACACAAACCGG [C82U A111U A120U A145U C150A C169G U176G], the reverse-splicing fitness was 0.00192.

With GUGCCUUGCGCCGGGAAACCACGCAAGGGAUGGUGUCAAAUUCGGCGAAACCUAAGCGCCCGCCCGGGCGUAUGGCAACGCUGAGCCAAGCUUCGGCGCCUGCGCCGAUGUAGGUGUAGUGACUAGACGGCACCCACCUAAGGCUAACGAUAUGGUGAAGGCAUAGUCGAGGGAGAGGCGAAAGUCACACAAACCGG [C82U A111U A120U A145U C150A C169G U176A], the reverse-splicing fitness was determined as 0.00311.

In the case of GUGCCUUGCGCCGGGAAACCACGCAAGGGAUGGUGUCAAAUUCGGCGAAACCUAAGCGCCCGCCCGGGCGUAUGGCAACGCUGAGCCAAGCUUCGGCGCCUGCGCCGAUGUAGGUGUAGUGACUAGACGGCACCCACCUAAGGCUAACGAUAUGGUGAAGGCAUAGUCGAGGGAGCGGCGAAAGUCACACAAACCGG [C82U A111U A120U A145U C150A C169G U176C], the reverse-splicing fitness is 0.00231.

GUGCCUUGCGCCGGGAAACCACGCAAGGGAUGGUGUCAAAUUCGGCGAAACCUAAGCGCCCGCCCGGGCGUAUGGCAACGCUGAGCCAAGCUUCGGCGCCUGCGCCGAUGUAGGUGUAGUGACUAGACGGCACCCACCUAAGGCUAACGGUAUGGUGAAGGCAUAGUCAAGGGAGCGGCGAAAGUCACACAAACCGG [C82U A111U A120U A145U C150G C169A U176C]: the reverse-splicing fitness is 0.00272.

For the variant GUGCCUUGCGCCGGGAAACCACGCAAGGGAUGGUGUCAAAUUCGGCGAAACCUAAGCGCCCGCCCGGGCGUAUGGCAACGCUGAGCCAAGCUUCGGCGCCUGCGCCGAUGUAGGUGUAGUGACUAGACGGCACCCACCUAAGGCUAACGGUAUGGUGAAGGCAUAGUCAAGGGAGGGGCGAAAGUCACACAAACCGG [C82U A111U A120U A145U C150G C169A U176G], the reverse-splicing fitness was 0.00213.

Consider GUGCCUUGCGCCGGGAAACCACGCAAGGGAUGGUGUCAAAUUCGGCGAAACCUAAGCGCCCGCCCGGGCGUAUGGCAACGCUGAGCCAAGCUUCGGCGCCUGCGCCGAUGUAGGUGUAGUGACUAGACGGCACCCACCUAAGGCUAACGGUAUGGUGAAGGCAUAGUCAAGGGAGAGGCGAAAGUCACACAAACCGG [C82U A111U A120U A145U C150G C169A U176A], for which the reverse-splicing fitness amounted to 0.0028.

In the case of GUGCCUUGCGCCGGGAAACCACGCAAGGGAUGGUGUCAAAUUCGGCGAAACCUAAGCGCCCGCCCGGGCGUAUGGCAACGCUGAGCCAAGCUUCGGCGCCUGCGCCGAUGUAGGUGUAGUGACUAGACGGCACCCACCUAAGGCUAACGGUAUGGUGAAGGCAUAGUCAAGGGAGUGGCGAAAGUCACACAAACCGG [C82U A111U A120U A145U C150G C169A], the reverse-splicing fitness was found to be 0.0034.

Regarding GUGCCUUGCGCCGGGAAACCACGCAAGGGAUGGUGUCAAAUUCGGCGAAACCUAAGCGCCCGCCCGGGCGUAUGGCAACGCUGAGCCAAGCUUCGGCGCCUGCGCCGAUGUAGGUGUAGUGACUAGACGGCACCCACCUAAGGCUAACGGUAUGGUGAAGGCAUAGUCUAGGGAGUGGCGAAAGUCACACAAACCGG [C82U A111U A120U A145U C150G C169U], the reverse-splicing fitness came out at 0.00272.

GUGCCUUGCGCCGGGAAACCACGCAAGGGAUGGUGUCAAAUUCGGCGAAACCUAAGCGCCCGCCCGGGCGUAUGGCAACGCUGAGCCAAGCUUCGGCGCCUGCGCCGAUGUAGGUGUAGUGACUAGACGGCACCCACCUAAGGCUAACGGUAUGGUGAAGGCAUAGUCGAGGGAGUGGCGAAAGUCACACAAACCGG [C82U A111U A120U A145U C150G C169G]: the reverse-splicing fitness was 0.00274.
